From patent US20220002700A1, “COMPUTATIONALLY-OPTIMIZED ACE2 PEPTIDES FOR COMPETITIVE INTERCEPTION OF SARS-CoV-2” (priority 2020, published 2022)
Where no end group is shown, it is not given here.

Key:
[1] = target: RBD-sfGFP (SARS-CoV-2 RBD fused to superfolder GFP) (Severe acute respiratory syndrome coronavirus 2, UniProt P0DTC2)
[2] = test system: S protein-pseudotyped virus; format: cell-based, SARS-CoV-2

Row | Substance | degradation in TRIM21 assay compared with other architectures [1] | reduction (depletion) of GFP+ cells [1] | difference in pseudoviral infection competency with addition of exogenous peptide [2]
1 | 23-mer (A2N) (QNKTFLDKFNHEAEDLFYQSSLA; also: fused to a dimerising Fc or GST) | improving on both the sACE2 and 23-mer architecture as well as that of a previously optimized full- length mutant, sACE2v2.4 | over 50% | Minimal difference
2 | QAKTFLDKFNHEAEDLFYQSSLA [sACE2 peptide variant 2] | – | ~20% | –
